Assay [1] deals with T1, HIV-1 fusion peptide FP15 (Env residues 512-526, most common sequence) (HIV-1 Env fusion peptide 512-526, most …).
T1 construct: source: peptide microarray (PEPperPRINT)
T1 chain: AVGIGAVFLGFLGAA
The assay is described as follows: peptide or protein array. The note with it: both partners purified.

Another assay has as its target T2, FP15 A517E (HIV-1 Env fusion peptide 512-526, most …, A517E).
T2 construct: also called FP15 with Glu at residue 517; source: peptide microarray (PEPperPRINT)
T2 chain: AVGIGEVFLGFLGAA
The assay is described as follows: peptide or protein array. The note with it: both partners purified.

In another assay the target is T3, FP15 A517D (HIV-1).
T3 sequence (peptide): AVGIGDVFLGFLGAA
The assay is described as follows: peptide or protein array.

The target in another assay is T4, FP15 V518E (HIV-1).
T4 sequence (peptide): AVGIGAEFLGFLGAA
Description: peptide or protein array.

Another assay has as its target T5, FP15 F519D (HIV-1).
T5 sequence (peptide): AVGIGAVDLGFLGAA
Description: peptide or protein array.

The next assay has as its target T6, FP15 F519E (HIV-1).
T6 sequence (peptide): AVGIGAVELGFLGAA
Description: peptide or protein array.

The target in another assay is T7, FP15 V518D (HIV-1).
T7 sequence (peptide): AVGIGADFLGFLGAA
The assay is described as follows: peptide or protein array.

Assay [2] deals with T8, BG505_RnS soluble HIV-1 Env trimer (WT FP sequence) (HIV-1 BG505, UniProt Q2N0S6, stabilised).
T8 construct: also called BG505 trimer; not shown: single-chain Fc, N-terminal, cleaved; copies: 3 + 3
The assay is described as follows: BLI; ForteBio Octet HTX; IgG loaded on anti-human Fc (AHC) tips at 20 ug/ml for 3 min; Env trimers at 50 ug/ml for 5 min, dissociation in PBS 5 min; corrected response values, triplicates. The note with it: both partners purified.

The target in assay [3] is T8, BG505_RnS soluble HIV-1 Env trimer (WT …). Description: BLI. The note with it: both partners purified.

B1: 0PV-c.01 IgG (antibody, V domains shown)
VH: QVQLVESGPGVVKPSETLSLTCVVSGGTPGRGFLYWSWVRQPPGKGLEWIGGTATNTDITDYNPSLKSRAAISKDTSRNQFLLNLKPLTAGDTAVYYCTSRAKDYRGPSYSRIDVWGPGVLVTVSS
VL: DIVMTQTPLSLPVTPGEPASISCRSSQSLLDSDGNTCLDWFLQKPGQSPQLLIYDVSNRVSGVPDRFSGSGSDTDFTLKISRVEAEDVGVYYCMQFVEFPLTFGGGTKVEIR
notes: source: Expi293, transfected, purified (protein A)
As to B1, the binding result in assay [1] is “binds”.

B2: ACS202 IgG (antibody, V domains shown)
VH: QVQLVESGGGVVQPGGSLRLSCAASGFAFKDFGMHWVRQAPGKGLEWVAVIGGGHGQHQSYSESVKGRFAITRDNEKNKLYLHMDRLRTEDTAVYYCAKDRLGRPWNIGGRLVYYYYGMDVWGQGTTVTVSS
VL: AIRMTQSPSSLSASVGDRVTITCQASQDIKKSLNWYRQKPGKAPELLIHDASILQTGVPSAFTASGSGTHFSFVINKLQPEDVGTYFCQEYENLQFTFGPGTKVEIK
notes: as for B1
Turning to B2, the binding result in assay [1] and in assay [2] was “binds” in each case. In addition, the “fold increase of binding intensity over WT” value with FP15 A517E, with FP15 A517D (HIV-1), in the assay with FP15 V518E (HIV-1), with FP15 F519D (HIV-1), with FP15 F519E (HIV-1) and in the assay with FP15 V518D (HIV-1) was 10 fold each time.

B3: N123-VRC34.01 IgG (antibody, V domains shown)
VH: QEVLVQSGAEVKKPGASVKVSCRAFGYTFTGNALHWVRQAPGQGLEWLGWINPHSGDTTTSQKFQGRVYMTRDKSINTAFLDVTRLTSDDTGIYYCARDKYYGNEAVGMDVWGQGTSVTVSS
VL: IQLTQSPSFLSASVGDKVTITCRASQGVRNELAWYQQKPGKAPNLLIYYASTLQSGVPSRFSATGSGTHFTLTVSSLQPEDFATYFCQHMSSYPLTFGGGTKVEIK
notes: as for B1
B3: the binding result in assay [3] is on record as “binds”.

These data come from PMC11602501 (Frontiers in Immunology, 2024).
